Results taken from patent US20160068860A1, “TRANSGENIC PLANTS” (CONSEJO SUPERIOR DE INVESTIGACIONES CIENTIFICAS (CSIC), priority 2013, published 2016).
Positions count from the first letter of the chain named. Numbers in names are those of the source.

B1: PYL4H82R V97A (AtPYL H82 and V97A) (receptor)
chain: MLAVHRPSSAVSDGDSVQIPMMIASFQKRFPSLSRDSTAARFHTHEVGPNQCCSAVIQEISAPISTVWSVVRRFDNPQAYKRFLKSCSVIGGDGDNAGSLRQVHVVSGLPAASSTERLDILDDERHVISFSVVGGDHRLSNYRSVTTLHPSPISGTVVVESYVVDVPPGNTKEETCDFVDVIVRCNLQSLAKIAENTAAESKKKMSL
notes: also called PYL4H82R (found combined with V97A)
B2: PYL4A194T: AtPYL4 ABA receptor mutant polypeptide with A194T substitution (SEQ ID NO. 60; nucleic acid SEQ ID NO: 55); also over-expressed in plants (protein, listed as Arabidopsis thaliana)
chain: B1 chain with R82H, A97V, A194T

What was measured:
[1] = test system: 6His-ΔNPP2CA; assay: Binding assay with 6His-ΔNPP2CA (Ni-affinity co-purification, size exclusion, pull-down); set-up: species or system Arabidopsis; conditions: for pull-down interaction with PP2CA: absence or presence of 100 μM ABA
Procedure: For small scale protein purifications, E. coli BL21 (DE3) cells transformed with the corresponding constructs were grown in 100 ml of LB medium to an OD600 of 0.6-0.8. At this point 1 mM isopropyl-β-D-thiogalactoside (IPTG) was added and the cells were harvested after overnight incubation at 20° C. Pellets were resuspended in lysis buffer (50 mM Tris pH 7.5, 250 mM KCl, 10% Glycerol, 1 mM β-mercaptoethanol) and lysed by sonication with a Branson Sonifier 250. The clear lysate obained after centrifugation was purified by Ni-affinity. A washing step was performed using 50 mM Tris, 250 mM KCl, 20% Glycerol, 30 mM imidazole and 1 mM […] washing buffer, and finally the protein was eluted using 50 mM Tris, 250 mM KCl, 20% Glycerol, 250 mM imidazole and 1 mM […] elution buffer For protein-protein interaction experiments, the pET28a_ΔNPP2CA, pETM11_PYL4 wt and pETM11_PYL4A194T plasmids were transformed into E. coli BL21 (DE3). A total of 8 ml of an overnight culture were sub-cultured into 800 ml fresh 2TY broth (16 g Bacto tryptone, 10 g yeast extract, 5 g NaCl per litre of solution) plus kanamycin (50 μg ml-1). Protein expression was induced with 0.3 mM IPTG and the cells were harvested after overnight incubation at 20° C. Pellets were resuspended in 25 mM TrisHCl pH 8.0, 50 mM NaCl, 50 mM imidazole, 5 mM […] and disrupted by sonication. After centrifugation (40 min, 40000 g) at 277 K, the clear supernatant was filtered (pore diameter […]; Millipore Corporation, Bedford, Mass., USA). The 6His-tagged proteins were purified using Ni-NTA Agarose (Qiagen) according to the manufacturer's instructions. The filtered supernatant was mixed with the previously equilibrated beads. After incubation, a washing step with ten volumes of 25 mM TrisHCl pH 8.0, 50 mM NaCl, 20 mM imidazole, 5 mM […] buffer was performed followed by the elution from the Ni2+ resin in a buffer with 500 mM imidazole. Imidazole was removed using a PD-10 column (GE Healthcare) and the His-tag was cleaved using TEV protease.
6His-ΔNPP2CA pellets were resuspended in 25 mM TrisHCl pH 8.0, 150 mM NaCl, 50 mM imidazole, 5 mM 3-mercaptoethanol, 5 mM Mg2+, mixed with 8 mg of either pure non-tagged (through TEV cleavage) PYL4 or PYL4A194T and disrupted by sonication. The crude extracts were treated as described above using His-Trap HP columns from GE Healthcare to the capture step according to the manufacturer's instructions. In all cases, the purified proteins were subjected to a size exclusion chromatography using a Superdex200 10/300 (Amersham Biosciences Limited, UK) to analyze the behavior in a gel filtration of each protein and to isolate the complex. […] After three washes, proteins were eluted by adding 500 mM imidazol and analyzed by SDS-PAGE.

[2] = test system: Barley plants (cv. Golden Promise); assay type: in vivo, Hordeum vulgare; conditions: for vegetative growth under non-stress conditions: in vivo; for drought tolerance compared to non-transformed Golden promise wt plants / fresh weight/leaf after drought / survival and vegetative growth after drought and rewatering / weight/plant after drought and rewatering: transgenic barley; for drought tolerance compared to non-transformed Golden promise wt plants: 12-d period of drought; for fresh weight/leaf after drought / survival and vegetative growth after drought and rewatering / weight/plant after drought and rewatering: compared to non-transformed plants
Excerpt: Transgenic barley (cv. Golden Promise) expressing either Arabidopsis PYL4^A194T or PYL4^H82R V97A open reading frame driven by the Ubiquitin promoter from the pBract214 vector was generated via Agrobacterium-mediated transformation (Bartlett et al. 2008).
The nucleotide sequence encoding either PYL4^A194T or PYL4^H82R V97A open reading frame was recombined by LR reaction from pCR8/GW/TOPO entry vector into the Gateway compatible pBract214 destination vector. The sequence introduced in barley is the Arabidopsis open reading frame carrying the indicated mutations. Also, the second codon (of the sequence as shown in SEQ ID NO; 2) was modified to GTT to get a Ncol site to facilitate cloning).
Immature embryos were inoculated with Agrobacterium strain AGL1 containing the over-expression vector pBract214 into which the genes of interest had been cloned. pBract214 also contains the hygromycin resistance gene to allow selection of transgenic tissues and plants. Following co-cultivation for 3 days, immature embryos were transferred to selective callus induction medium containing hygromycin to allow the selection of transformed tissue and timentin to remove Agrobacterium. After a total of 6 weeks callus induction, callus were moved to a transition medium in low light and then 2 weeks later to regeneration medium under full light. Regenerated plants were transferred to rooting tubes when shoots reached 2-3 cm in length. Plants with strong roots in hygromycin containing medium were then established in soil and grown to maturity under controlled environment conditions in order to obtain T1 seed progeny.
Barley plants (cv. Golden Promise) were routinely grown under greenhouse conditions (40-50% relative humidity, 23-24° C.) in pots containing a 1:3 vermiculite-soil mixture. Pots were grouped in trays where water was maintained approximately 0.2-1 cm above the bottom of the tray. For drought (D) stress experiments, four-week-old plants were watered with tap water for 12-d (minus D, water maintained 0.2-1 cm above the bottom of the tray) or were submitted to drought for 12-d (plus D, water withdrawal). One flag leaf per plant (10 individual plants for each genetic background, minus and plus D treatment) was weighed in order to obtain its fresh weight and dried for 16 h at 70° C. and weighed again to obtain its dry weight. After the 12 day drought period, plants that had been submitted to drought were re-watered (RW, water 1 cm above the bottom of the tray for 2-d, then water withdrawal) and weight per plant (destructive measurement to obtain above ground biomass) was obtained after 5-d (plus D, plus RW). The results obtained are described in FIGS. 9, 10 and 11.

Molecule	pull-down interaction with PP2CA [1]	vegetative growth under non-stress conditions [2]	drought tolerance compared to non-transformed Golden promise wt plants [2]	fresh weight/leaf after drought [2]	survival and vegetative growth after drought and rewatering [2]	weight/plant after drought and rewatering [2]	co-purification with 6His-ΔNPP2CA by Ni-affinity chromatography ([1]; absence of ABA)	complex with 6His-ΔNPP2CA by size exclusion chromatography ([1]; absence of ABA)
PYL4: AtPYL4 wild type ABA receptor polypeptide (SEQ ID NO:3, At2g38310) [reference compound]	dependent on the addition of ABA							
B1		did not impair vegetative growth	enhanced drought tolerance	higher fresh weight/leaf	enhanced survival and vegetative growth	higher weight/plant		
B2	ABA-independent binding	did not impair vegetative growth	enhanced drought tolerance	higher fresh weight/leaf	enhanced survival and vegetative growth	higher weight/plant	could be co-purified	1:1 complex
